# According to paper PMC2266763, “Dimerization of the transmembrane domain of amyloid precursor proteins and familial Alzheimer's disease mutants” (BMC Neuroscience, 2008):
# B1: wild-type APP-TM peptide [modified: acceptor version: Glu with the fluorescent group EDANS covalently linked to its sidechain, after the N-terminal Lys-tag (in place of the Trp of the donor version); acceptor version: Glu with … (parent)
# chain 1: GAIIGLMVGGVVIATVIVITLVML
# chain 2: GAIIGLMVGGVVIATVIVITLVML
# B2: wild-type APP-TM peptide [modified: acceptor version: Glu with the fluorescent group EDANS covalently linked to its sidechain, after the N-terminal Lys-tag (in place of the Trp of the donor version); acceptor version: Glu with … (parent)
# chain: GAIIGLMVGGVVIATVIVITLVML
# Variants of: B1
# Test: FRET
# Details: 50 µM total peptide concentration, equimolar wild-type and mutant (open bar), parent: 0.73, read off a plot
row,response [A/D ratio],Variant
1,1.6,chain 1 GAIIGLMVGGVVIATVIGITLVML [chain 1 V18G]
2,0.43,chain 1 GAIIGLMVGGVVIATVIFITLVML [chain 1 V18F]
3,0.44,chain 1 GAIIGLMVGGVVIAIVIVITLVML [chain 1 T15I]

# Same assay, conditions: 20 mM SDS, equimolar Trp-labeled wild-type and Edans-labeled V717G, 50 µM total peptide concentration (highest point of the curve), read off a plot
row,response [A/D ratio],Variant
1,1.6,chain 1 GAIIGLMVGGVVIATVIGITLVML [chain 1 V18G]

# Variants of: B2
# Test: FRET
# Details: with itself; 50 µM total peptide concentration; homodimer (solid bar); parent: 0.73; read off a plot
row,response [A/D ratio],Variant
1,0.42,GAIIGLMVGGVVIAIVIVITLVML [chain 1 T15I]
